In the assay the target is fak1_human PTK2 (UniProt Q05397).
Sequence of fak1_human PTK2 (Q05397 whole entry, looked up): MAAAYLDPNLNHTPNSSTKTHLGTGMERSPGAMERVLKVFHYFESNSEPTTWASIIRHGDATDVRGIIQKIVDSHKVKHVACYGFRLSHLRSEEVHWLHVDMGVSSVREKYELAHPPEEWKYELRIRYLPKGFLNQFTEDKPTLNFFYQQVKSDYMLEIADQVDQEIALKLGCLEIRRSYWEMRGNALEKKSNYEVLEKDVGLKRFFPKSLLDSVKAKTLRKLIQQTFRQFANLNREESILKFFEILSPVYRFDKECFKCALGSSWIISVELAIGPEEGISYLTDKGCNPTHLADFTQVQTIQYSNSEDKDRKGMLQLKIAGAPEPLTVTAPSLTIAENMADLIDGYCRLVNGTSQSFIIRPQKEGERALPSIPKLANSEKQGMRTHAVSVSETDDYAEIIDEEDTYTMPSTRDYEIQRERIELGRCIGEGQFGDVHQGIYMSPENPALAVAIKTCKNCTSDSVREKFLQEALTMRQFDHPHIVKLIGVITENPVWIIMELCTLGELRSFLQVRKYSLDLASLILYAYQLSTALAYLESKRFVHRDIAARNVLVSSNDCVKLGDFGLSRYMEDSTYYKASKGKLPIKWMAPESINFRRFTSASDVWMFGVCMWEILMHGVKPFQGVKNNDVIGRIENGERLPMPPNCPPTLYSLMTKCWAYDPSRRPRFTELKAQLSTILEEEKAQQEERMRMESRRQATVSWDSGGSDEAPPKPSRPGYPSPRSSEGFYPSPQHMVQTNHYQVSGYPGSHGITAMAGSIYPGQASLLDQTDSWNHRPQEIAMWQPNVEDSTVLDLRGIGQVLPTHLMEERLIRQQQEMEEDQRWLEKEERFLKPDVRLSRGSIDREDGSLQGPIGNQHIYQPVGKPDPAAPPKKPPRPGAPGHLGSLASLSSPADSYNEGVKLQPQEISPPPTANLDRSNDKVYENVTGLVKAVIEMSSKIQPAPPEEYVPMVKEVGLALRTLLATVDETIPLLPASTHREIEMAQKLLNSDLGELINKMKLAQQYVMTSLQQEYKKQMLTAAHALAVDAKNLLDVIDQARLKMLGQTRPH

Regarding “Talin-1 (Gallus gallus (Chicken)), P54939 A360E”, the “effect of a mutation on the interaction” value is given as “disrupting interaction”.

Regarding “Talin-1 (Gallus gallus (Chicken)), P54939 W359A”, the “effect of a mutation on the interaction” value was “disrupting interaction”.
